This experiment deals with collagen VI tetramers from bovine cornea (bovine). The experiment can be described thus: ELISA; solid-phase binding: collagen VI tetramers coated (10 ug in 100 ul TBS, overnight 4 C), recombinant WARP dimer 0-1 uM in TBS, 1 h at room temperature, detected with sheep anti-WARP serum; Scatchard analysis, apparent Kd.

B1: recombinant human WARP (von Willebrand factor A-domain related protein), dimer (natural protein)
chain: ERGPPASAPRGDLMFLLDSSASVSHYEFSRVREFVGQLVAPLPLGTGALRASLVHVGSRPYTEFPFGQHSSGEAAQDAVRASAQRMGDTHTGLALVYAKEQLFAEASGARPGVPKVLVWVTDGGSSDPVGPPMQELKDLGVTVFIVSTGRGNFLELSAAASAPAEKHLHFVDVDDLHIIVQELRGSILDAMRPQQLHATEITSSGFRLAWPPLLTADSGYYVLELVPSAQPGAARRQQLPGNATDWIWAGLDPDTDYDVALVPESNVRLLRPQILRVRTRPGEAGPGASGPESGAGPAPTQLAALPAPEEAGPERIVISHARPRSLRVSWAPALGSAAALGYHVQFGPLRGGEAQRVEVPAGRNCTTLQGLAPGTAYLVTVTAAFRSGRESALSAKACTPDGPRPRPRPVPRAPTPGTASREP
Regarding B1, the Kd came out at 22 nM.

For the origin of these results see article PMC3530481.
